Results from IntAct's records for PubMed 20956295.

Biological target: cav1_human CAV1 (UniProt Q03135)
Chain of UniProt Q03135 (Q03135 whole entry): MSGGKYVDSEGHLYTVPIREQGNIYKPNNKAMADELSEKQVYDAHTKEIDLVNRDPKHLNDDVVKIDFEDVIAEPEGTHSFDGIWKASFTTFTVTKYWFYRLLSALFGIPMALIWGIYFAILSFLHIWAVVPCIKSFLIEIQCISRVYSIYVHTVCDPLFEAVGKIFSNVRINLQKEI

- effect of a mutation on the interaction: disrupting interaction
Substance: Microtubule-associated protein 1 light chain 3 beta (Homo sapiens) (from UniProt Q9GZQ8) Y113A
